Assays:
[1] = molecular target: T1, IolQ-His6 (DegA) (Bacillus subtilis 168) (UniProt P37947); assay: EMSA; settings: 10 mM Tris-HCl pH 8.0, 1 mM DTT, 10 mM KCl, 5 mM MgCl2, 10% glycerol, 5 ug/ml poly d(I-C), 50 ug/ml BSA, 37 C, 30 min; DNA 0.155 pmol in 0.02 ml (EMSA) or …
T1 sequence: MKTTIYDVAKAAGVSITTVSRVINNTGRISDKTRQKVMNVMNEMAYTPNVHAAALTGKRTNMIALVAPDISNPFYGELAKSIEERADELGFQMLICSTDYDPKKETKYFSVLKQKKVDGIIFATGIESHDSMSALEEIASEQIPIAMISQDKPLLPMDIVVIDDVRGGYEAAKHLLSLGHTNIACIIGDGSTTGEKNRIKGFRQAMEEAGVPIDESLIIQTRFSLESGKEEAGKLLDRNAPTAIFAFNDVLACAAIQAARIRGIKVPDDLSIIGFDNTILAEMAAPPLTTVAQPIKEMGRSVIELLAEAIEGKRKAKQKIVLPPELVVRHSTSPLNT

[2] = molecular target: T1, IolQ-His6 (DegA) (Bacillus subtilis 168); assay: DNase I footprinting; settings: 10 mM Tris-HCl pH 8.0, 1 mM DTT, 10 mM KCl, 5 mM MgCl2, 10% glycerol, 5 ug/ml poly d(I-C), 50 ug/ml BSA, 37 C, 30 min; DNA 0.155 pmol in 0.02 ml (EMSA) or …

Sequence | binding [1] | binding [2]
ATGAGCGGGTTTTTTCATTATGACAGTTGAAGCCAAAAAAACATATTGCGTGTAAACCAAAGGCGGTGTAAAATATAACCATCTTTTGAGAAAGCGCTTGCGCAAAATGGCAGAGCGGATAGAACCGCTGTTTTTTTAGCTGTTAAGAGAAAACGCTTTCTCAAAGCGAGCCCGAAATGAGATAAAGGAGAGGATGGGAC (double strand) [iolX promoter 200 bp] | binds | 
GAGCTTGTAGTCAGACATTCTACATCACCGCTCAACACATGAGCCCGCTAATGAGCGGGTTTTTTCATTATGACAGTTGAAGCCAAAAAAACATATTGCGTGTAAACCAAAGGCGGTGTAAAATATAACCATCTTTTGAGAAAGCGCTTGCGCAAAATGGCAGAGCGGATAGAACCGCTGTTTTTTTAGCTGTTAAGAGAAAACGCTTTCTCAAAGCGAGCCCGAAATGAGATAAAGGAGAGGATGGGACGTGGAACATCAAGTAAGATGTGCAGTATTGGGATTAGGAAGGCTCGGTTA (double strand) [iolX promoter 300 bp footprint probe, high affinity region] |  | binds

Reference: article PMC5504672
